From patent US20030162168A1

Target: chimera H (HCV NS3 to NS5B-P6' fused to tTA, NS3 active site mutant S1165A, unmodified NS5A/5B junction) (Hepatitis C virus 1b (human serum isolate))
Test: cell-based or functional assay

chimera I (HCV NS3 to NS5B-P6' fused to tTA, NS5A/5B cleavage site P1-P1' mutated to R-P; source of active NS3 protease)
luciferase activity, triple transfection of chimera H, I and the pUHC13-3 reporter into 293 cells: 2e+06 cps
